In article PMC4431670 (Structure(London, England:1993), 2015):

T1: C-terminal domain of Not1 (Not1C), residues 1541-2093 (S. cerevisiae, UniProt P25655 1541-2093)
T1 sequence (looked up): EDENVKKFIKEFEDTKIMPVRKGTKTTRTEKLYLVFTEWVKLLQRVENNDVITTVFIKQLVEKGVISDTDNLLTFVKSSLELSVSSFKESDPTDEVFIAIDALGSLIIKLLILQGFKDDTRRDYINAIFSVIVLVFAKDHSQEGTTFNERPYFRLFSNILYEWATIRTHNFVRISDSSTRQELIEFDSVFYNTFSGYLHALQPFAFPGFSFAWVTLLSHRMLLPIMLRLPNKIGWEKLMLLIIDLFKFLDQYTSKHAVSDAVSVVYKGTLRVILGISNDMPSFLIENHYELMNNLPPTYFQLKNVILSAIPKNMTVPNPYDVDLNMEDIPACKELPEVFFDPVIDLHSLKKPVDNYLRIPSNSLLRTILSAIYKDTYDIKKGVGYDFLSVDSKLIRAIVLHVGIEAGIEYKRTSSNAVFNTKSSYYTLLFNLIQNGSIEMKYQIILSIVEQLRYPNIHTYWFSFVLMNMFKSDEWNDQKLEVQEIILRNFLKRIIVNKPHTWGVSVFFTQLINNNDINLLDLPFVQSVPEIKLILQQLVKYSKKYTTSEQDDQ

B1: GST-tagged Not4C (domain or fragment, S. cerevisiae, UniProt P34909 418-477, looked up)
chain: DPYDALGNAVDFLDARLHSLSNYQKRPISIKSNIIDEETYKKYPSLFSWDKIEASKKSDN
B2: Not4C, residues 418-477 of Not4 (domain or fragment, S. cerevisiae, UniProt P34909 418-477, looked up)
chain: B1 chain

How the values were obtained:
[1] = target: T1, C-terminal domain of Not1 (Not1C), …; test: pull-down
[2] = target: T1, C-terminal domain of Not1 (Not1C), …; test: crystal structure

Row | Binder | binding result [1] | binding result [2]
1 | B1 | binds | 
2 | B2 |  | binds
